Measurements as given in publication doi:10.1101/202184 (bioRxiv, 2017).

B1: SecG (subunit of Escherichia coli SecYEG) (natural protein)
chain: MYEALLVVFLIVAIGLVGLIMLQQGKGADMGASFGAGASATLFGSSGSGNFMTRMTALLATLFFIISLVLGNINSNKTNKGSEWENLSAPAKTEQTQPAAPAKPTSDIPN
B2: SecE (subunit of Escherichia coli SecYEG) (natural protein)
chain: MSANTEAQGSGRGLEAMKWVVVVALLLVAIVGNYLYRDIMLPLRALAVVILIAAAGGVALLTTKGKATVAFAREARTEVRKVIWPTRQETLHTTLIVAAVTAVMSLILWGLDGILVRLVSFITGLRF

What was measured:
[1] = target: T1, SecY (wild type, subunit of Escherichia coli SecYEG) (E. coli, UniProt P0AGA2 1-443); test: native MS
T1 sequence: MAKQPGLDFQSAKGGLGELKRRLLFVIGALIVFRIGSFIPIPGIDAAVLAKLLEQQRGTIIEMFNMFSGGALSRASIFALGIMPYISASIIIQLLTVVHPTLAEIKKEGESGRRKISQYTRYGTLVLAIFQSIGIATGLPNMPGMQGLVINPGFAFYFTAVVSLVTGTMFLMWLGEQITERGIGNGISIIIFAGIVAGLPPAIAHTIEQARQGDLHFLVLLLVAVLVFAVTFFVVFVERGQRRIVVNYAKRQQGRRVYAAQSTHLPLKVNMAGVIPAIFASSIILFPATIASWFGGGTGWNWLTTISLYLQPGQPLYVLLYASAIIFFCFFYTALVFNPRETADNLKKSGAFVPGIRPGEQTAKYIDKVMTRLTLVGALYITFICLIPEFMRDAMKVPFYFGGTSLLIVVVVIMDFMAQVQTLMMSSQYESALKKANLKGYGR

[2] = target: B2; test: native MS

Binder | binding result [1] | binding result [2]
B1 | binds | binds
B2 | binds | 
